# Experimental data as given in US20170198014A1 (UNIVERSITY WASHINGTON THROUGH ITS CENTER FOR …, published 2017).
# B1: Hsc1 (SEQ ID NO:135) fused to HAA.1c (SEQ ID NO:227) via the triLong linker (SEQ ID NO: 352), trimer (designed binder)
# chain: MEEVVLITVPSEEVARTIAKALVEERLAACVNIVPGLTSIYRWQGEVVEDQELLLLVKTTTHAFPKLKERVKALHPYTVPEIVALPIAQGNQEYLDWLRENAGGGGSGGSGIVNVPNCNTTKYQQLARTAVAIYNYHEQAHLTFVENLNCKEQLGEGDYYYITLAATDDAGKKAIYEAKIGVVESAGWTGVEEFKLV
# B2: HAA.1 c fused to Hsc1-EA via a triLong linker, trimer (designed binder)
# chain: MEEVVLITVPSEEVARTIAKALVEERLAACVNIVPGLTSIYRWQGEVVEDQELLLLVKTTTHAFPKLKERVKALHPYTVPEIVALPIAQGNQEYLDWLRENAGGGGSGGSGIVNVPNCNTTKYQQLARTAVAIYNYHEQAHLTFVENLNCKEQGNYYYITLAATDDAGKKAIYEAKIGVVESAGWTGVEEFKLV
# Key:
# [1] = target: hemagglutinin H1 (A/Solomon Islands/3/2006) (influenza A virus A/Solomon …); test: BLI (Octet), biotinylated HA on streptavidin sensors
# [2] = target: T1, hemagglutinin H3 (A/Hong Kong/1/1968-H3N2) (influenza A virus A/Hong Kong/1/1968 …, UniProt Q91MA7 27-521); test: as above
# [3] = target: T1, hemagglutinin H3 (A/Hong …); test: BLI (FIG. 5)
Binder,Kd [1] [nM],Kd [2] [nM],Kd [3] [nM]
B1,< 1,< 1,
B2,,,< 1
